What all share (test): cell-based or functional assay
Experiment [1] addresses recombinant human Factor IXa K126A/R150A (human) (UniProt P00740).
In experiment [2] the target is recombinant human Factor IXa K132A (human) (UniProt P00740).
For experiment [3], the target named is human plasma-derived Factor IXa (human) (UniProt P00740).
The target in experiment [4] is recombinant human Factor IXa K132A/R150A (human) (UniProt P00740).
Experiment [5] has as its target recombinant human Factor IXa K126A/K132A (human) (UniProt P00740).
In experiment [6] the target is recombinant human Factor IXa K126A/K132A/R150A (human) (UniProt P00740).
Experiment [7] addresses recombinant human Factor IXa R150A (human) (UniProt P00740).
Experiment [8] deals with recombinant human Factor IXa wild-type (human) (UniProt P00740).
Experiment [9] deals with recombinant human Factor IXa K126A (human) (UniProt P00740).

Turning to “human plasma-derived antithrombin (from UniProt P01008 33-464)”, the k2, inhibition of FIXa by ATIII/Fond (460 nM fondaparinux) in [1] is 63.3 M⁻¹ s⁻¹; in experiment [2] it was 3250 M⁻¹ s⁻¹; in experiment [3], 3520 M⁻¹ s⁻¹; in experiment [4], 68.3 M⁻¹ s⁻¹; in experiment [5], 2640 M⁻¹ s⁻¹; in experiment [6], 68.3 M⁻¹ s⁻¹. Moreover, the k2, inhibition of FIXa by ATIII/Fond (460 nM fondaparinux) in experiment [7] amounted to 71.7 M⁻¹ s⁻¹; in [8], 3290 M⁻¹ s⁻¹; in experiment [9], 3300 M⁻¹ s⁻¹. The k2, inhibition of FIXa by ATIII/UFH (0.24 U/mL) in [2] was 3740 M⁻¹ s⁻¹; in experiment [3] it was 3430 M⁻¹ s⁻¹; in [5] it was 423 M⁻¹ s⁻¹; in [6], 6.67 M⁻¹ s⁻¹; in experiment [7], 262 M⁻¹ s⁻¹; in experiment [8], 4330 M⁻¹ s⁻¹. The k2, inhibition of FIXa by ATIII/UFH (0.24 U/mL) in [9] was determined as 1560 M⁻¹ s⁻¹. Besides, in experiment [8], the k2, inhibition of FIXa by ATIII, no heparin came to 51.7 M⁻¹ s⁻¹.

(Values after patent US20160122739A1.)
